Data from patent publication US20140056918A1 (Novo Nordisk, published 2014).

T1: Human OSCAR (osteoclast-associated receptor), full length, on cells (human)
T1 chain: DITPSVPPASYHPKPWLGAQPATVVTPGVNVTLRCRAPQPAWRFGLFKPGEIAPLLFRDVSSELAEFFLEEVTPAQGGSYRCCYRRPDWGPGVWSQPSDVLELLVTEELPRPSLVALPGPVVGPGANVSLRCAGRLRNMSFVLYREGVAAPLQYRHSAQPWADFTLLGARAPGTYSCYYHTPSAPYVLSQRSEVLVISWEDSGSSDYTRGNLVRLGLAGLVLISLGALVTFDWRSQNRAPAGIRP

T2: Human OSCAR-S1a (naturally occurring soluble isoform) (human, UniProt Q8IYS5 19-282)
T2 construct: Recombinant soluble isoform used as SPR analyte; also called OSCAR 1Sa
T2 sequence: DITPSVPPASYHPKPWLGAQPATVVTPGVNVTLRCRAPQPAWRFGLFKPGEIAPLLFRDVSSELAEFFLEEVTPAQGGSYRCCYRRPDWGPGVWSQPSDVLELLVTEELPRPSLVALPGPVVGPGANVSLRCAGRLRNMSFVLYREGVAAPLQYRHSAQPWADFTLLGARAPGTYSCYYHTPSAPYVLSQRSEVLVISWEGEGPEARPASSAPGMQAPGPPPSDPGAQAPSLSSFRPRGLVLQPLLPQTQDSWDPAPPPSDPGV

B1: 13F5A5 (antibody, V domains shown)
VH: EVQLVQSGAEVKKPGESLKISCKGSGYSFTSYWIVWVRQMPGKGLEWMGSIYPGDSDARYSPSFQGQVTISADKSISTAYLQWSSLKASDTAMYYCARQKITMVRGVIITPLDGMDVWGQGTTVTVSS
VL: not shown
notes: Fully human anti-OSCAR mAb from HuMab mice; also called 13F5A5 (Hu)
B2: 3F7A9 (antibody, V domains shown)
VH: EIQLQQSGPELVKPGASVKVSCKASGYVFTSYNMYWVKQSHGKSLEWIGYIDPYNGGTRYNQKFKGKATLTVDKSSSTAYMHLNSLTSEDSAVYYCARLDYYGNFYWGQGTTLTVSS
VL: DIKMTQSPSSMYASLGERVTITCKASQDINSFLSWLQQKPGKSPKTLIYRANRLVDGVPSRFSGSGSGQDYSLTISSLEYEDMGIYYCLQYDDFPYTFGGGTKLEIKR
notes: Mouse anti-human OSCAR mAb (its isotype control is mIgG1); The heavy chain entry covers only VH-CH1 and the start of the hinge; also called 3F7A9-1
B3: 4F3B (antibody, V domains shown)
VH: QVQLQQSGAELAKPGASVKMSCKASGFTFTSYWMHWVKQRPGQGLEWIGYINPSTDYTEYNQKFKDKATLTADKSSSTAYMQLSSLTSEDSAVYYCARRSPFAMDYWGQGTSVTVSS
VL: DIVMTQSPSSLTVTAGEKVTMSCKSSQSLLNSGNQKNYLTWYQQKPGQPPKVLIYWASTRESGVPDRFTGSGSGTDFTLTISSVQAEDLAVYYCQNDYSYPLTFGTGTKLELKR
notes: Mouse anti-human OSCAR mAb (its isotype control is mIgG1); The heavy chain entry covers only VH-CH1 and the start of the hinge; It was fluorescein-labelled in the peptide array and Alexa Fluor 647-labelled in the flow binning; also called mAb 4F3B
B4: Human OSCAR-ECD (recombinant extracellular domain of human OSCAR) (receptor)
chain: DITPSVPPASYHPKPWLGAQPATVVTPGVNVTLRCRAPQPAWRFGLFKPGEIAPLLFRDVSSELAEFFLEEVTPAQGGSYRCCYRRPDWGPGVWSQPSDVLELLVTEELPRPSLVALPGPVVGPGANVSLRCAGRLRNMSFVLYREGVAAPLQYRHSAQPWADFTLLGARAPGTYSCYYHTPSAPYVLSQRSEVLVISWEDSGSSDYTR
notes: also called OSACAR-ECD

Key:
[1] = biological target: T1, Human OSCAR (osteoclast-associated …); assay: cell-based or functional assay
[2] = biological target: T1, Human OSCAR (osteoclast-associated …); assay: flow cytometry on primary human monocytes, donor #1
Experimental: (§1) Cell number and viability were determined using a Cedex cell counter. The cells were diluted in washing buffer (1×PBS (—Ca²⁺/—Mg²⁺)+5% FBS+0.1% Na-azide) to […]. In the case of monocytes, the cells were further blocked by adding 10 μl of a hFcR blocker (Miltenyi, #130-059-901) and incubated for 10 minutes at 4° C. 50 μl of cells (50.000 cells/well) were seeded into 96 well round-bottomed microtiter plates. Hybridoma supernatants or purified antibodies (in serial dilutions) were added to the cells at 50 μl/well. The isotype-matched purified irrelevant human mAb or mouse mAb served as negative controls (mouse IgG1, BD, #553452; mouse IgG2a, BD, #557353; mouse IgG2b, BD, #557352). […] Cells were washed in PBS, re-suspended in fixation buffer (1×PBS (—Ca²⁺/—Mg²⁺), pH7.2+1% formalin (B&B, #LAB96751.0500) and analysed by FACS flow cytometer. EC₅₀ values were calculated using a GraphPad Prism 5 software.

[3] = biological target: T1, Human OSCAR (osteoclast-associated …); assay: flow cytometry on primary human monocytes, donor #2
Experimental: as §1

[4] = biological target: B4; assay: SPR competition, 50 nM OSCAR-ECD premixed with mAb, over immobilised collagen I
Experimental: (§2) The experiment was performed using a Biacore T 100 instrument (GE Healthcare). Human collagen 1 (Sigma, # C5483) and human collagen 2 (Millipore #CC052) were diluted with 10 mM NaOAc, pH 4.5 and immobilized on a Biacore CM3 sensor chip (GE Healthcare) using amine coupling chemistry (GE Healthcare). Immobilization was performed according to the standard procedure, but at 5° C. in order to prevent aggregation collagens, with immobilized levels of ca 250 RU on flow cells (FC) 2 and 4. A blank immobilization was performed on FC 1 & 3, which were used as reference cells. HBS-EP buffer (10 mM HEPES, 150 mM NaCl, 3 mM EDTA, 0.05% Polysorbat P20, pH7.4) was used as running buffer for the immobilization. Buffer containing HBS-EP/+0.1% BSA was used for the competition assay. The competition experiment was performed at 5° C. at a flow rate of 50 μl/min. […] OSCAR was mixed with various concentrations of anti-OSCAR antibodies ranging from 0-10 μg/ml prior to injection. Binding curves were measured for 360 s followed by 240 s of dissociation. The chip surface was regenerated for 2×20 s with 10 mM glycine, pH 2.0 between assays.
(§3) Human collagen I and II were immobilized to the surface of a Biacore sensor chip by amine coupling. […] It was hypothesized that an antibody inhibiting binding of OSCAR to collagen would lead to a concentration-dependent loss of signal, whereas a non-inhibiting antibody would enhance the signal due to the increased mass of the OSCAR-antibody complex.

[5] = biological target: B4; assay: SPR (Biacore T100), mAb coupled or captured on chip, OSCAR-ECD injected, 1:1 fit
Experimental: The kinetic parameters (kₐ, kd and KD) for the interaction were calculated using a 1:1 interaction Langmuir fitting model.

[6] = biological target: B4; assay: SPR competition, 50 nM OSCAR-ECD premixed with mAb, over immobilised collagen II; parameters: unit not given here
Experimental: as §2, §3

[7] = biological target: B4; assay: SPR competition, 50 nM OSCAR-ECD premixed with mAb, over ColI immobilised at ca 150 RU
Experimental: (§4) The experiment was performed using a Biacore T 100 instrument (GE Healthcare). Human ColI (Sigma, # C5483) was diluted with 10 mM NaOAc, pH 4.5 to 10 μg/ml and immobilized on a Biacore CM3 sensor chip (GE Healthcare) using amine coupling chemistry (GE Healthcare). Immobilization was performed according to the standard procedure, but at 4° C. in order to prevent aggregation of ColI, with immobilized levels of ca 150 RU on flow cell (FC) 2 and ca 300 RU on FC 4. A blank immobilization was performed on FC 1 & 3, which were used as reference cells. HBS-EP buffer (10 mM HEPES, 150 mM NaCl, 3 mM EDTA, 0.005% Polysorbat P20, pH7.4) was used as running buffer for the immobilization. Buffer containing HBS-EP/+0.1% BSA was used for the competition assay.
(§5) The competition experiment was performed at 4° C. at a flow rate of 50 μl/min. […] OSCAR was mixed with various concentrations of anti-OSCAR antibodies ranging from 0-5 μg/ml prior to injection. Binding curves were measured for 240 s followed by 200 s of dissociation. The chip surface was regenerated for 2×20 s with 10 mM glycine, pH 2.0 between assays. All assays were performed in duplicates.
(§6) Human ColI was immobilized to the surface of a Biacore sensor chip by amine coupling.

[8] = biological target: B4; assay: SPR competition, 50 nM OSCAR-ECD premixed with mAb, over ColI immobilised at ca 300 RU
Experimental: as §4, §5, §6

[9] = biological target: T2, Human OSCAR-S1a (naturally occurring …); assay: SPR competition, 50 nM OSCAR-S1a premixed with mAb, over ColI immobilised at ca 150 RU
Experimental: as §4, §5, §6

[10] = biological target: T2, Human OSCAR-S1a (naturally occurring …); assay: SPR competition, 50 nM OSCAR-S1a premixed with mAb, over ColI immobilised at ca 300 RU
Experimental: as §4, §5, §6

[11] = biological target: T3, Human collagen I (Sigma, #C5483) (human, UniProt P02452 162-1218; P08123 80-1119); assay: SPR
T3 construct: Bought collagen preparation, immobilised by amine coupling or coated on plates; also called ColI; colI
T3 sequence (P02452 162-1218, chain 1 of 2): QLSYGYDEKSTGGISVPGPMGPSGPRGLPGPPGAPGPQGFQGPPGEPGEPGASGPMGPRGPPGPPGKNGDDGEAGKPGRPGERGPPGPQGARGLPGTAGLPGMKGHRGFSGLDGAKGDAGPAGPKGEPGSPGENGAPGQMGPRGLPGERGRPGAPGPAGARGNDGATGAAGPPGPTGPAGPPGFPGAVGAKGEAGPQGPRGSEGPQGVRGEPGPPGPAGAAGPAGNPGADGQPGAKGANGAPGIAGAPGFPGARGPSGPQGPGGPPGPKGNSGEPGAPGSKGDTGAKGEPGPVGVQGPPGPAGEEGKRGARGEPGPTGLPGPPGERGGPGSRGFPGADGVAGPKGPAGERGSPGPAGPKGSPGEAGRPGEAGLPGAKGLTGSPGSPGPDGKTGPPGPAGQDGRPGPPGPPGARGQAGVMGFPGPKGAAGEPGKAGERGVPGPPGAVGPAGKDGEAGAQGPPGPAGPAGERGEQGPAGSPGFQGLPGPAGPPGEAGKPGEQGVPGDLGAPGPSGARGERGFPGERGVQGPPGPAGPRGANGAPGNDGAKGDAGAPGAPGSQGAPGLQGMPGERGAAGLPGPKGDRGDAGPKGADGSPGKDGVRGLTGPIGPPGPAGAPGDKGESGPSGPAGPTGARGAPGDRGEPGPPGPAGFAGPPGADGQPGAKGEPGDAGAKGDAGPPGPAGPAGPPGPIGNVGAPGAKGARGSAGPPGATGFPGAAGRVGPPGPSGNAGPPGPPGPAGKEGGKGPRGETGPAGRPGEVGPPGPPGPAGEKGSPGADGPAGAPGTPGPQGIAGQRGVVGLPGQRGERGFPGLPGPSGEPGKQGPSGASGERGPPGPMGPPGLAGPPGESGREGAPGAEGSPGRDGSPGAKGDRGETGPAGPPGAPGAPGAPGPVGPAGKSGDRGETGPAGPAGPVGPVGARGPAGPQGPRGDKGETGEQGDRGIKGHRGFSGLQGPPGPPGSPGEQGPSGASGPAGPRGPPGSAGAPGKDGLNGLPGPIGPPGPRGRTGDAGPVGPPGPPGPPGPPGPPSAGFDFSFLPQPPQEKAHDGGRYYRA
T3 sequence (P08123 80-1119, chain 2 of 2): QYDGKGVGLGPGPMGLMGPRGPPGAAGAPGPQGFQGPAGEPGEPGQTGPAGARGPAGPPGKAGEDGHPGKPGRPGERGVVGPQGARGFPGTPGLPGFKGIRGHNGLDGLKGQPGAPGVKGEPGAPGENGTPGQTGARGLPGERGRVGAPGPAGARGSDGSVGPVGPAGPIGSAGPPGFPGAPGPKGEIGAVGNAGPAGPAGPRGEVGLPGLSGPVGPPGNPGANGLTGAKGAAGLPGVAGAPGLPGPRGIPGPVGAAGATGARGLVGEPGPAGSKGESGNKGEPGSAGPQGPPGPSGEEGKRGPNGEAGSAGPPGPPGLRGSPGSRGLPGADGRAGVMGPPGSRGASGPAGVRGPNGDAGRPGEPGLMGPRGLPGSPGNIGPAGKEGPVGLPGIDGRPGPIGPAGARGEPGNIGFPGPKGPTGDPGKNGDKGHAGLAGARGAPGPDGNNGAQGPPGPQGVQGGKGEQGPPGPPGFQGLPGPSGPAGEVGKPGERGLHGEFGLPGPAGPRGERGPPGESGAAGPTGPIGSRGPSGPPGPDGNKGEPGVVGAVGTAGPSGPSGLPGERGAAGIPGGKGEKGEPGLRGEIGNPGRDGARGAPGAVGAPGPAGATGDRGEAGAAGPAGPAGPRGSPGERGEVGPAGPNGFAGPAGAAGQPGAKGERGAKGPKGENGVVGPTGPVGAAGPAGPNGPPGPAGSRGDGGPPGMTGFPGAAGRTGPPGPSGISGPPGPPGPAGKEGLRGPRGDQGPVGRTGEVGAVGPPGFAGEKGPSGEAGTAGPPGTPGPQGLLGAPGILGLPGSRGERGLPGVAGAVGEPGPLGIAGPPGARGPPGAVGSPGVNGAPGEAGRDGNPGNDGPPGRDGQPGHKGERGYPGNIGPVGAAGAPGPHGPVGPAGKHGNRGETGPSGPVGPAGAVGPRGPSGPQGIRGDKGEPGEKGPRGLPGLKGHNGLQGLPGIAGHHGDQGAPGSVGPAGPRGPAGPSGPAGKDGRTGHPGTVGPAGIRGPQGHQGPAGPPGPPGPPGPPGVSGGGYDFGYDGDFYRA

Binder	IC50 (IL-8), ColI-induced IL-8 release from moDC, Donor 1 [1] [nM]	IC50 (IL-8), ColI-induced IL-8 release from moDC, Donor 4 [1] [nM]	IC50 (IL-8), ColI-induced IL-8 release from moDC, Donor 5 [1] [nM]	IC50 (IL-8), ColI-induced IL-8 release from moDC, Donor 6 [1] [nM]	EC50 [2] [nM]	EC50 [3] [nM]	binding of OSCAR-ECD to collagen I with 10 µg/mL mAb [4]	Kd [5] [nM]	binding of OSCAR-ECD to collagen II with 10 µg/mL mAb [6]	Binding [RU] of OSCAR to ColI with 5 µg mAb [7] [RU]	Binding [RU] of OSCAR to ColI with 5 µg mAb [8] [RU]	Binding [RU] of OSCAR to ColI with 5 µg mAb [9] [RU]	Binding [RU] of OSCAR to ColI with 5 µg mAb [10] [RU]	IC50 (IL-8), ColI-induced IL-8 release from moDC, Donor 2 [1] [nM]	IC50 (IL-8), ColI-induced IL-8 release from moDC, Donor 3 [1] [nM]	Kd [11] [nM]
B1	2	< 0.01	0.23	0.06	4.02	2.18	-1.4	0.7	1.3	1.4	5.1	-0.2	2	–	–	–
B2	0.16	0.06	0.05	0.1	1.79	0.14	132	9.1	246	82.5	130	58.9	92.6	0.06	0.41	–
B3	0.19	0.12	0.43	0.24	0.66	0.32	0.7	1.7	6.7	0.9	3.6	-0.3	1.4	–	0.4	–
B4	–	–	–	–	–	–	–	–	–	–	–	–	–	–	–	255
